Assay [1] addresses T1, Mouse Tissue Factor (mouse).
T1 chain: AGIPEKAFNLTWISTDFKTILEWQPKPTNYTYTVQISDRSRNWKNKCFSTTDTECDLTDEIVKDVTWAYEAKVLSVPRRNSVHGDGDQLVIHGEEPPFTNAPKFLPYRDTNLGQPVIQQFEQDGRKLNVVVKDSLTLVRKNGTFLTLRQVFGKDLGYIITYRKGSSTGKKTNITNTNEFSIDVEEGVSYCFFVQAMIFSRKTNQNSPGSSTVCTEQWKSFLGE
The experiment in a line: BLI, batch 2. For orientation: BLI is a label-free optical method that tracks binding on a fibre tip over time.

Assay [2] concerns the target T2, Cynomolgus Tissue Factor (cynomolgus).
T2 chain: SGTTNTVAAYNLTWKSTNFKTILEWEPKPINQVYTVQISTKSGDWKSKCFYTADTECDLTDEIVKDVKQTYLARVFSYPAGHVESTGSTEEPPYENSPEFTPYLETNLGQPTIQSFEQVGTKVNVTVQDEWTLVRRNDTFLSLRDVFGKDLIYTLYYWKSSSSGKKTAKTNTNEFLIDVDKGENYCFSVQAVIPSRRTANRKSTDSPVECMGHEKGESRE
The experiment in a line: BLI, batch 2.

Assay [3] concerns the target T2, Cynomolgus Tissue Factor. The experiment in a line: BLI, batch 1.
Assay [4] addresses T3, Human Tissue Factor (human).
T3 chain: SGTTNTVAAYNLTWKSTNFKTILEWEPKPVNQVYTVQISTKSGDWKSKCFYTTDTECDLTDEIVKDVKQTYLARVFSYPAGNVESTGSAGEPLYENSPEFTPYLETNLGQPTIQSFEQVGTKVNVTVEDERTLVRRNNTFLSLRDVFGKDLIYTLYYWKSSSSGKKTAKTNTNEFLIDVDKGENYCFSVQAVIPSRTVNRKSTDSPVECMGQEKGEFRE
Briefly: BLI, batch 1.

Assay [5] concerns the target T1, Mouse Tissue Factor. The experiment in a line: BLI, batch 1.
Assay [6] addresses T3, Human Tissue Factor. Briefly: BLI, batch 2.
Assay [7] deals with T2, Cynomolgus Tissue Factor. Briefly: BLI.
Assay [8] addresses T1, Mouse Tissue Factor. The experiment in a line: BLI.
Assay [9] deals with T3, Human Tissue Factor. The experiment in a line: BLI.

One may read the Kd as the free concentration of one partner at which half of the binding sites on the other are occupied at equilibrium, for simple one-to-one binding. The low end stands for a tighter complex, the high end for a looser complex.

B1: EXMA-006 (antibody)
chain 1: QVQLVQSGAEVKKPGASVKVSCKASGYTFDVYGISWVRQAPGQGLEWMGWIAPYSGNTNYAQKLQGRVTMTTDTSTSTAYMELRSLRSDDTAVYYCARDAGTYSPFGYGMDVWGQGTTVTVSS
chain 2: DIQMTQSPSTLSASVGDRVTITCQASQSINNWLAWYQQKPGKAPKLLIYKAYNLESGVPSRFSGSGSGTEFTLTISSLQPDDFATYYCQLFQSLPPFTFGGGTKVEIK
modifications: unconjugated TF antibody; representative batches 1 and 2
As to B1, the Kd in the assay with Mouse Tissue Factor [1] came out at 2000 µM; with Cynomolgus Tissue Factor [2], 240 µM; in the assay with Cynomolgus Tissue Factor [3], 0.000673 µM; in the assay with Human Tissue Factor [4], 0.00113 µM; with Mouse Tissue Factor [5] it was 0.107 µM; with Human Tissue Factor [6], 36 µM.

B2: TF-ADC 6-8 (antibody)
chain 1: not shown
chain 2: DIQMTQSPSTLSASVGDRVTITCQASQSINNWLAWYQQKPGKAPKLLIYKAYNLESGVPSRFSGSGSGTEFTLTISSLQPDDFATYYCQLFQSLPPFTFGGGTKVEIKRTVAAPSVFIFPPSDEQLKSGTASVVCLLNNFYPREAKVQWKVDNALQSGNSQESVTEQDSKDSTYSLSSTLTLSKADYEKHKVYACEVTHQGLSSPVTKSFNRGEC
modifications: ADC, linker-payload conjugated at fGly' in CH1 and C-terminus, DAR about 8
Turning to B2, the values for the Kd with Cynomolgus Tissue Factor [7], with Mouse Tissue Factor [8] and in the assay with Human Tissue Factor [9] were 19 µM, 210 µM and 7.1 µM, respectively.

(Values after patent US20260325667 (published 2026).)
